Measurements reported in article PMC10858392 (Cell reports, 2023).
Values belong to the binder of their own block, whether it stands above or below them.

What was measured:
Test in all cases: ELISA
[1] = target: lysozyme from chicken egg white (Gallus gallus, UniProt P00698)
human insulin = human insulin (Homo sapiens, UniProt P01308)
[2] = target: albumin from human serum, low endotoxin (Homo sapiens, UniProt P02768)
ubiquitin (in-house) = ubiquitin (in-house) (Homo sapiens, UniProt P0CG47)

Sequence of albumin from human serum, low endotoxin (P02768 25-609): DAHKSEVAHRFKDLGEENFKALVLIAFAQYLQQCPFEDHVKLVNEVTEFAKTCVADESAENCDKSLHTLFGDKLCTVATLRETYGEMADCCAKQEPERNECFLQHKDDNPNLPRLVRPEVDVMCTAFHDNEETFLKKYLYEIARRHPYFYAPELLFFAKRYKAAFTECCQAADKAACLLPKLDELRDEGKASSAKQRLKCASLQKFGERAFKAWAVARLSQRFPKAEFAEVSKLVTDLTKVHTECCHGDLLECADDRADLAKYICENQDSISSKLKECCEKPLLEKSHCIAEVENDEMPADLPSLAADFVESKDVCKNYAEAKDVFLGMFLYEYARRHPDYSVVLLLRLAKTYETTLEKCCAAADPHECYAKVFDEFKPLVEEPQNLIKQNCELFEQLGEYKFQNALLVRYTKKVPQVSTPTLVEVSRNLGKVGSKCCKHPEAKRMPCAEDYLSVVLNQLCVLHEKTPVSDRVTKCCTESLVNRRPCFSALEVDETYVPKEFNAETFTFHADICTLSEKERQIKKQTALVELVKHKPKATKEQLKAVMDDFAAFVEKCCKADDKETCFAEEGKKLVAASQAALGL
Sequence of human insulin (P01308 whole entry, looked up): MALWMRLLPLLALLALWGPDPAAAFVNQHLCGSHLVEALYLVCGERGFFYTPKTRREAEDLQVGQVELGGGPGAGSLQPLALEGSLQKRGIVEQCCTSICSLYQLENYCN
Sequence of lysozyme from chicken egg white (P00698 19-147): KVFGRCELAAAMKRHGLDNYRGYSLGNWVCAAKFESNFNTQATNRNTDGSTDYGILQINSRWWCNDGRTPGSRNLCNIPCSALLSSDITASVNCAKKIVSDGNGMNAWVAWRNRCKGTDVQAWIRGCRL

binding result [1]: binds
binding result (human insulin): binds
binding result (ubiquitin (in-house)): binds
B1: 43G10 mAb (polyreactive mouse IgA monoclonal antibody, full-length) (antibody, V domains shown)
VH: QVQLKQSGPGLVKPSQSLSLTCSVTGYSITSGFYWTWIRQFPGNKVEWMGYINYAGNNDYNPSLKDRISITRDTSKNQFFLKLNSVTSEDTATYYCTRGTGRIEYWGQGTSVTVSS
VL: DIKMTQSPSSLAVSVGEKVSMSCKSSQSLLYSYNQKNYLAWYQQAPGQSPKLLIYWASTRESGVPDRFTGSGSGTDFTLTISNVKTEDLAVYYCQQYHSHPLTFGQGTKVEIK
binding result [2]: binds

binding result [1]: binds
binding result (human insulin): binds
binding result (ubiquitin (in-house)): binds
B2: 338E6 mAb (polyreactive mouse IgA monoclonal antibody, full-length) (antibody, V domains shown)
VH: EVKLEESGGDLVKPGGSLKLSCAASGFTFSSYGMSWVRQTPDKRLEWVATISSGGSYTYYPDSVKGRFTISRDNAKNTLYLQMSSLKSEDTAMYYCARRGFYFDYWGQGTTLTVSS
VL: ETTVTQSQKFMSTSVGDRVSVTCKASQNVGTNVAWYQQKPGQSPKALIYSASYRYSGVPDRFTGSGSGTDFTLTISNVQSEDLAEYFCQQYNSYPLTFGQGTKVEIK
binding result [2]: binds
